Drawing on US20240409617A1, this text covers Kd and Response for four molecules.

The target in assay [1] is B.1.1.7 Spike (SARS-CoV-2 spike protein, UK variant B.1.1.7) (SARS-CoV-2).
The target of assay [2] is B.1.351 Spike (SARS-CoV-2 spike protein, South African variant B.1.351) (SARS-CoV-2).
Assay [3] addresses P.1 Spike (SARS-CoV-2 spike protein, Brazilian variant P.1) (SARS-CoV-2).
Assay [4] has as its target D614G Spike (SARS-CoV-2 spike protein, D614G) (SARS-CoV-2).

B1: Ab 31 scFv-Fc (scFv, V domains shown)
VH: QVQLVQSGAEVKKPGSSVKVSCKASGGTFSSYTISWVRQAPGQGLEWMGGIIPILGTPNYAQKFQDRVAITADKSTSTAYMELSSLRSEDTAVYYCAVGSGWYSGFDYWGQGTLVTVSS
VL: NFMLTQPHSVSESPGKTVTISCTGSSGSIASNYVQWYQQRPGSAPTTVIYEDSQRPSGVPDRFSGSIDSSSNSASLTISGLKTEDEADYYCQSFHNSNPVIFGGGTKLTVL
Regarding B1, the Kd (as a rule, a measure of binding affinity in units of concentration) was less than 1 pM in assay [1], less than 1 pM in assay [2] and 8.97 pM in assay [3]. In addition, the Response in assay [1] was 0.135; in assay [2], 0.09; in assay [3] it was 0.0789.

B2: Ab 30 scFv-Fc (scFv, V domains shown)
VH: QVQLVQSGGGVVQPGKSLRLSCTASGFTFSDFPIHWVRQAPGKGLEWVGVISYDGNIKYYGDSVKGRFTISRDNAKNSLYLQMNSLRVEDTAVYYCARGGSSFDIWGQGTTVTVSS
VL: SYELTQPPSVSEAPRQRVTISCSGSTSNIGNNAVSWYQHLPGKAPKLLIYYNERLPSGVSDRFSGSKSGTSASLAISGLRSEDEADYYCAAWDDSLSGHVVFGGGTKLTVL
On to B2, for which the results for the Kd in assay [1], in assay [2] and in assay [3] were less than 1 pM, less than 1 pM and 9.02 pM, respectively. For the same molecule, the Response in assay [1] was 0.139; in assay [2], 0.0883; in assay [3] it was 0.0766.

B3: Ab 29 scFv-Fc (scFv, V domains shown)
VH: QVQLQQSGPGLVKPSQTLSLTCAISGDSVSSYSDAWNWIRQSPSRGLEWLGRTYYRSKWYNDYAVSVKSRITINPDTSKNQFSLQLSSVTPEDTAVYYCAREIVATTPFRNYYYGMDVWGQGTTVTVSS
VL: NFMLTQPHSVSESPGNTVTISCTRTSGSIASNYVQWYQQRPGSSPTTVIFQDKLRPSGVPDRFSGSIDSSSNSASLTISGLKTEDEADYYCQSYDSSSLWVFGGGTKLTVL
Turning to B3, the Kd in assay [1] stood at 693 pM; in assay [2], 371 pM; in assay [3] it was 8.45 pM. Besides, the Response in assay [1] was determined as 0.118; in assay [2], 0.0418; in assay [3], 0.0232.

B4: Ab 38 scFv-Fc (scFv, V domains shown)
VH: QVTLKESGPTLVKPTQTLTLTCTFSGFSLTTSGVSVGWIRQPPGKALEWLALIHWDDDKRYSPSLRSRLTITRDTSKNQVVLTVTDMDPADTGTYYCASFIMTVYAEYFEDWGQGTLVTVSS
VL: EIVLTQSPATLSVSPGERATLSCRASQSVSSNLAWYQQKPGQAPRLLMYDVSTRATGIPARFSGSGSGTEFSLTISSLQSEDFAVYYCQQRGAWPLTFGGGTKVEIK
In the case of B4, the dissociation constant Kd is 1.47 pM in assay [1], 7.62 pM in assay [2], 3.37 pM in assay [4] and 7.23 pM in assay [3]. The Response in assay [1] is 0.267; in assay [2] it was 0.234; in assay [4], 0.328; in assay [3] it was 0.228.
